Assay results taken from patent publication US20150011431A1 (Scripps Research, published 2015).

T1: CXCR1 (UniProt P25024 1-350, limits assumed)
T1 construct: whole, on cells; DiscoveRx cells engineered with a luminescent reporter enzyme for beta-arrestin recruitment; also called CXCR1-U2OS; U2OS-CXCR1
T1 sequence (looked up): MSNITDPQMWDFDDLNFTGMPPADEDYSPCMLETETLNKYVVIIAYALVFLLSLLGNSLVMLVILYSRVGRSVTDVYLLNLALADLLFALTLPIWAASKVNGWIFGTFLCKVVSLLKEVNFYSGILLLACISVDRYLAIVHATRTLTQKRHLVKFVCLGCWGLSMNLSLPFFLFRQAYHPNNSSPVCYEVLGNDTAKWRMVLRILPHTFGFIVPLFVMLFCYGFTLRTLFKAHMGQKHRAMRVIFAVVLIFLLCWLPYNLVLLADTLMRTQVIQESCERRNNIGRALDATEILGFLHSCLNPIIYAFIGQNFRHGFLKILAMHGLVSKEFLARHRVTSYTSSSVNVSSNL

B1: IgG with VH1-69+CDR3-IL8 (antibody)
VH: QVQLVQSGAEVKKPGSSVKVSCKASGGTFSSYAISWVRQAPGQGLEWMGGIIPIFGTANYAQKFQGRVTITADKSTSTAYMELSSLRSEDTAVYYCTSVHQETKKYQSPRSAKELRCQCIKTYSKPFHPKFIKELRVIESGPHCANTEIIVKLSDGRELCLDPKENWVQRVVEKFLKRAENSGSGSYTYNYEWHVDVWGQGLLVTVSSAS
light: not shown
notes: IgG; VH cloned before human IgG1 CH1-CH2-CH3 in HC pFuse; cell culture supernatant; also called VH1-69 BLVCDR3IL8
B2: IgG with VH4-34+CDR3-IL8_CDR1 Cow and light chain V1-51 S2A, T5N, P8S, A12G, A13S, P14L & DNN to GDT (antibody)
heavy: not shown
light: QAVLNQPSSVSGSLGQKVTISCSGSSSNIGNNYVSWYQQLPGTAPKLLIYGDTKRPSGIPDRFSGSKSGTSATLGITGLQTGDEADYYCASAEDSSSNAVFGSGTTLTVLGQPKAAPSVTLFPPSSEELQANKATLVCLISDFYPGAVTVAWKADSSPVKAGVETTTPSKQSNNKYAASSYLSLTPEQWKSHRSYSCQVTHEGSTVEKTVAPTECS
notes: IgG, human IgG1 CH1-CH2-CH3; normalized to 10 nM; also called VH4-34 CDR3-IL8 CDR1-Cow / V1-51 S2A, T5N, P8S, A12G, A13S, P14L & DNN to GDT
B3: IgG with VH4-4+CDR3-IL8 (antibody)
VH: QVQLQESGPGLVKPSETLSLTCTVSGGSISSYYWSWIRQPAGKGLEWIGRIYTSGSTNYNPSLKSRVTMSVDTSKNQFSLKLSSVTAADTAVYYCTSVHQETKKYQSPRSAKELRCQCIKTYSKPFHPKFIKELRVIESGPHCANTEIIVKLSDGRELCLDPKENWVQRVVEKFLKRAENSGSGSYTYNYEWHVDVWGQGLLVTVSSAS
light: not shown
notes: IgG; VH cloned before human IgG1 CH1-CH2-CH3 in HC pFuse; also called VH4-4 BLVCDR3IL8
B4: IgG with VH1-46+CDR3-IL8 (antibody)
VH: QVQLVQSGAEVKKPGASVKVSCKASGYTFTSYYMHWVRQAPGQGLEWMGIINPSGGSTSYAQKFQGRVTMTRDTSTSTVYMELSSLRSEDTAVYYCTSVHQETKKYQSPRSAKELRCQCIKTYSKPFHPKFIKELRVIESGPHCANTEIIVKLSDGRELCLDPKENWVQRVVEKFLKRAENSGSGSYTYNYEWHVDVWGQGLLVTVSSAS
light: not shown
notes: IgG; VH cloned before human IgG1 CH1-CH2-CH3 in HC pFuse; cell culture supernatant; also called VH1-46 BLVCDR3IL8
B5: IgG with VH4-34+CDR3-IL8_CDR1 Cow CDR2 Cow and light chain V1-51 CDR1 I29V, N32G (antibody)
heavy: not shown
light: QSVLTQPPSVSAAPGQKVTISCSGSSSNVGNGYVSWYQQLPGTAPKLLIYDNNKRPSGIPDRFSGSKSGTSATLGITGLQTGDEADYYCASAEDSSSNAVFGSGTTLTVLGQPKAAPSVTLFPPSSEELQANKATLVCLISDFYPGAVTVAWKADSSPVKAGVETTTPSKQSNNKYAASSYLSLTPEQWKSHRSYSCQVTHEGSTVEKTVAPTECS
notes: IgG, human IgG1 CH1-CH2-CH3; normalized to 10 nM; also called VH4-34 CDR3-IL8 CDR1-Cow & CDR2-Cow / V1-51 CDR1 I29V, N32G
B6: IgG with VH4-34+CDR3-IL8_CDR1 Cow CDR2 Cow and light chain V1-51 S2A, T5N, P8S, A12G, A13S, P14L (antibody)
heavy: not shown
light: QAVLNQPSSVSGSLGQKVTISCSGSSSNIGNNYVSWYQQLPGTAPKLLIYDNNKRPSGIPDRFSGSKSGTSATLGITGLQTGDEADYYCASAEDSSSNAVFGSGTTLTVLGQPKAAPSVTLFPPSSEELQANKATLVCLISDFYPGAVTVAWKADSSPVKAGVETTTPSKQSNNKYAASSYLSLTPEQWKSHRSYSCQVTHEGSTVEKTVAPTECS
notes: IgG, human IgG1 CH1-CH2-CH3; normalized to 10 nM; also called VH4-34 CDR3-IL8 CDR1-Cow & CDR2-Cow / V1-51 S2A, T5N, P8S, A12G, A13S, P14L

Experiments:
CXCR1 [1] = target: T1, CXCR1; experiment: flow cytometry, IgG-containing supernatant on CXCR1-U2OS cells, fluorescent anti-human Fc
Procedure: (§1) In an exemplary method, BLV1H12 IgG comprising a CDR3 with an IL-8 insert (e.g., the IL-8 sequence replaced a portion of the CDR3) was evaluated for binding to CXCR1 expressing cells by flow cytometry. Briefly, a cell line expressing functionally validated CXCR1 derived from U2OS cells was obtained from DiscoveRx and cultured per manufacturer's instructions (Cat#93-0226C3, DiscoveRx Corporation, Freemont, Calif.). The parental cell line U2OS was obtained from ATCC and cultured under the same conditions as the CXCR1 cells. Cell culture supernatants were then tested for binding to cells by flow cytometry. The adherent U2OS or CXCR1-U2OS cells were dissociated with Accutase (Innovative Cell Technologies, Inc., San Diego, Calif.), neutralized with an equal volume of media containing 10% serum, centrifuged at 1000 g, and resuspended in PBS with 2% BSA. Next, cells were dispensed into microtiter plates to achieve between 30,000 to 300,000 cells per well, centrifuged again, and resuspended in cell culture supernatant containing expressed IgG, or a dilution of IgG-containing cell culture supernatant. A fluorescent-conjugated anti-Human Fc antibody was used to detect binding of the expressed antibody to cells.
(§2) Additionally, the human germline CDR3-IL8 IgGs described in Example 5 were evaluated for binding to CXCR1 expressing cells by flow cytometry as described above. IgG binding to CXCR1-U2OS cells is indicated by higher fluorescence values, but non-specific binding to U2OS parental cells is also detectable.

CXCR1 [2] = target: T1, CXCR1; experiment: flow cytometry; fluorescence on CXCR1-U2OS cells over fluorescence on parental U2OS cells
Procedure: as §1, §2

CXCR1 [3] = target: T1, CXCR1; experiment: flow cytometry with 2 ug/ml heparin sulfate, IgG normalized to 10 nM; CXCR1-U2OS against parental U2OS cells
Procedure: Cell culture supernatants were then tested for binding to cells by flow cytometry. The adherent U2OS or CXCR1-U2OS cells were dissociated with Accutase (Innovative Cell Technologies, Inc., San Diego, Calif.), neutralized with an equal volume of media containing 10% serum, centrifuged at 1000 g, and resuspended in PBS with 2% BSA. Next, cells were dispensed into microtiter plates to achieve between 30,000 to 300,000 cells per well, centrifuged again, and resuspended in cell culture supernatant containing expressed IgG, or a dilution of IgG-containing cell culture supernatant. A fluorescent-conjugated anti-Human Fc antibody was used to detect binding of the expressed antibody to cells.
In an exemplary method, variants of V1-51 were made by overlap PCR and subcloned into pFuse vector for expression as described in Example 4. […] These V1-51 variants were paired with heavy chains encoding VH4-34+CDR3-IL8 (SEQ ID NO: 430), VH4-34+CDR3-IL8_CDR1 Cow (SEQ ID NO: 432), VH4-34+CDR3-IL8_CDR2 Cow (SEQ ID NO: 433), or VH4-34+CDR3-IL8_CDR1 Cow CDR2 Cow, (SEQ ID NO: 436). Transfections and ELISA were carried out as described above, and flow cytometry was used to evaluate CXCR1 binding specificity as previously described, with the modification that cells were resuspended in 2% BSA in PBS plus 2 ug/ml Heparin sulfate, and IgGs were normalized to 10 nM during incubation on cells.

Row | Binder | median fluorescence on CXCR1-U2OS (CXCR1 [1]) | Ratio of CXCR1/Parental (CXCR1 [2]) | CXCR1 specificity (CXCR1 [3])
1 | B1 | 78 AFU | 4 | –
2 | B2 | – | – | 6.8
3 | B3 | 3080 AFU | 3.1 | –
4 | B4 | 6 AFU | 1.1 | –
5 | B5 | – | – | 11.8
6 | B6 | – | – | 12.2
